Measurements: patent US20260150817A1

Target: Spike protein of the COVID-19 Spike-ACE2 Binding Assay Kit (Raybiotech) (SARS-CoV-2) (UniProt P0DTC2)

human SAT Nb-Fc control VH-Ab-8 (HAb8-S) (Fc fusion)
IC50: 0.079 nM
